Reference: publication PMC10945584, “Dual recognition of multiple signals in bacterial outer membrane proteins enhances assembly and maintains membrane integrity” (eLife, 2024)
Where a chain is given by its changes, count along the chain named. Names may count otherwise. “And” between values parts separate entries of the source, which are not always exact repeats. Equal entries are not always repeated.

B1: 35S-labeled OmpF, in vitro translated (natural protein, Escherichia coli, UniProt P02931 1-362, looked up)
chain: MMKRNILAVIVPALLVAGTANAAEIYNKDGNKVDLYGKAVGLHYFSKGNGENSYGGNGDMTYARLGFKGETQINSDLTGYGQWEYNFQGNNSEGADAQTGNKTRLAFAGLKYADVGSFDYGRNYGVVYDALGYTDMLPEFGGDTAYSDDFFVGRVGGVATYRNSNFFGLVDGLNFAVQYLGKNERDTARRSNGDGVGGSISYEYEGFGIVGAYGAADRTNLQEAQPLGNGKKAEQWATGLKYDANNIYLAANYGETRNATPITNKFTNTSGFANKTQDVLLVAQYQFDFGLRPSIAYTKSKAKDVEGIGDVDLVNYFEVGATYYFNKNMSTYVDYIINQIDSDNKLGVGSDDTVAVGIVYQF
modifications: 35S-methionine label
notes: OmpF, E. coli; source: in vitro translated (rabbit reticulocyte lysate, 35S-methionine)
B2: FLAG-OmpC expressed in E. coli (natural protein, Escherichia coli, UniProt P06996 22-367, looked up)
chain: AEVYNKDGNKLDLYGKVDGLHYFSDNKDVDGDQTYMRLGFKGETQVTDQLTGYGQWEYQIQGNSAENENNSWTRVAFAGLKFQDVGSFDYGRNYGVVYDVTSWTDVLPEFGGDTYGSDNFMQQRGNGFATYRNTDFFGLVDGLNFAVQYQGKNGNPSGEGFTSGVTNNGRDALRQNGDGVGGSITYDYEGFGIGGAISSSKRTDAQNTAAYIGNGDRAETYTGGLKYDANNIYLAAQYTQTYNATRVGSLGWANKAQNFEAVAQYQFDFGLRPSLAYLQSKGKNLGRGYDDEDILKYVDVGATYYFNKNMSTYVDYKINLLDDNQFTRDAGINTDNIVALGLVYQF
notes: OmpC, E. coli; Two plasmid names are printed for FLAG-OmpC; also called FLAG-OmpC(WT); FLAG-tagged form of OmpC; not shown: FLAG, N-terminal, kept
B3: OmpC, His6-tagged, purified, urea-denatured (natural protein, Escherichia coli, UniProt P06996 22-367, looked up)
chain: B2 chain
notes: OmpC, E. coli; also called OmpC(WT); native OmpC protein; source: E. coli BL21(DE3)*, inclusion bodies, purified in 6 M urea (Ni-NTA)
B4: 35S-labeled OmpC(Y286A), in vitro translated (natural protein, Escherichia coli, UniProt P06996 1-367, looked up)
chain: MKVKVLSLLVPALLVAGAANAAEVYNKDGNKLDLYGKVDGLHYFSDNKDVDGDQTYMRLGFKGETQVTDQLTGYGQWEYQIQGNSAENENNSWTRVAFAGLKFQDVGSFDYGRNYGVVYDVTSWTDVLPEFGGDTYGSDNFMQQRGNGFATYRNTDFFGLVDGLNFAVQYQGKNGNPSGEGFTSGVTNNGRDALRQNGDGVGGSITYDYEGFGIGGAISSSKRTDAQNTAAYIGNGDRAETYTGGLKYDANNIYLAAQYTQTYNATRVGSLGWANKAQNFEAVAQAQFDFGLRPSLAYLQSKGKNLGRGYDDEDILKYVDVGATYYFNKNMSTYVDYKINLLDDNQFTRDAGINTDNIVALGLVYQF
modifications: 35S-methionine label
notes: OmpC, E. coli; also called internal signal mutant; source: in vitro translated (rabbit reticulocyte lysate, 35S-methionine)
B5: 35S-labeled OmpC, in vitro translated (natural protein, Escherichia coli, UniProt P06996 1-367, looked up)
chain: B4 chain with A286Y
modifications: 35S-methionine label
notes: OmpC, E. coli; also called 35S-OmpC; OmpC(WT); source: in vitro translated (rabbit reticulocyte lysate, 35S-methionine)
B6: 35S-labeled LamB, in vitro translated (natural protein, Escherichia coli, UniProt P02943 1-446, looked up)
chain: MMITLRKLPLAVAVAAGVMSAQAMAVDFHGYARSGIGWTGSGGEQQCFQTTGAQSKYRLGNECETYAELKLGQEVWKEGDKSFYFDTNVAYSVAQQNDWEATDPAFREANVQGKNLIEWLPGSTIWAGKRFYQRHDVHMIDFYYWDISGPGAGLENIDVGFGKLSLAATRSSEAGGSSSFASNNIYDYTNETANDVFDVRLAQMEINPGGTLELGVDYGRANLRDNYRLVDGASKDGWLFTAEHTQSVLKGFNKFVVQYATDSMTSQGKGLSQGSGVAFDNEKFAYNINNNGHMLRILDHGAISMGDNWDMMYVGMYQDINWDNDNGTKWWTVGIRPMYKWTPIMSTVMEIGYDNVESQRTGDKNNQYKITLAQQWQAGDSIWSRPAIRVFATYAKWDEKWGYDYTGNADNNANFGKAVPADFNGGSFGRGDSDEWTFGAQMEIWW
modifications: 35S-methionine label
notes: LamB (maltoporin), E. coli; also called maltoporin; source: in vitro translated (rabbit reticulocyte lysate, 35S-methionine)
B7: OmpF, endogenous (natural protein, Escherichia coli (endogenous), UniProt P02931 23-362, looked up)
chain: AEIYNKDGNKVDLYGKAVGLHYFSKGNGENSYGGNGDMTYARLGFKGETQINSDLTGYGQWEYNFQGNNSEGADAQTGNKTRLAFAGLKYADVGSFDYGRNYGVVYDALGYTDMLPEFGGDTAYSDDFFVGRVGGVATYRNSNFFGLVDGLNFAVQYLGKNERDTARRSNGDGVGGSISYEYEGFGIVGAYGAADRTNLQEAQPLGNGKKAEQWATGLKYDANNIYLAANYGETRNATPITNKFTNTSGFANKTQDVLLVAQYQFDFGLRPSIAYTKSKAKDVEGIGDVDLVNYFEVGATYYFNKNMSTYVDYIINQIDSDNKLGVGSDDTVAVGIVYQF
notes: OmpF, E. coli; also called endogenous OmpF; trimeric OmpF; source: endogenous, E. coli membrane fractions (EMM)

Columns and labels:
[1] = biological target: the molecule itself; assay: native gel or EMSA; 35S-labeled substrate incubated with E. coli microsomal membranes (EMM) at 30 °C, membranes solubilised in 1.5% DDM, BN-PAGE and radio-imaging
[2] = biological target: the molecule itself; assay: native gel or EMSA; EMM from E. coli strains solubilised with 1.5% DDM, BN-PAGE and immunoblotting
[3] = biological target: the molecule itself; assay: SDS-PAGE of unboiled samples after folding into detergent micelles; 5 μM urea-denatured OmpC in 10 mM phosphate pH 8.0, 2 mM EDTA, 1 mM glycine, 3.4 mM DDM, 37 °C up to 36 h; samples boiled or kept at room temperature

Protein	stoichiometry N [1]	other results
B1	3	
B2		stoichiometry N [2]: 2 and 3
B3		stoichiometry N [3]: 3 and 2
B4	3	
B5	3	
B6	3	
B7		stoichiometry N [2]: 3 and 2
